According to the RNAGym collection of RNA variant scans (doi:10.7554/elife.90254):

B1: LINE1-mini (parent)
chain: GGCAGAGCUCAACACAGCGUGGCAAAGUGGCUGUGGCUAGACUGCC

Variants of: B1
Experiment: self-cleavage, relative activity (ratio to wild type); higher = more cleavage; in vitro, sequencing; the parent is a self-cleaving ribozyme

Point of comparison: A4G G27U, self-cleavage 0.31. Against it:
- C15A G27C — lower, 0.1
- C15A C46A — lower, 0.09
- A24U U38G — lower, 0.02
- C18G G30C — higher, 1
- C23A A25U — higher, 0.78
- G19C U43G — lower, 0.02
- G5C C13G — lower, 0.13
- C31U U38C — lower, 0.14
- A6C A12U — lower, 0.16
- A16U G30C — higher, 0.45
- G5A U34C — lower, 0.08
- G29U U38C — higher, 0.47
- A24C C31U — lower, 0.12
- G7A A26C — lower, 0.18
- G21A U32G — lower, 0.1
- A11U U38A — lower, 0.07
- C23U G36C — lower, 0.07
- G22A U34C — higher, 0.87
- A16U A25C — lower, 0.03
- A4C U38G — lower, 0.04
- C10G C23A — lower, 0.08
- C8G G35A — lower, 0.13
- C13U A41C — lower, 0.06
- A24U C45G — lower, 0.3
- G21A U43A — lower, 0.17
- G44U C45U — lower, 0.14
- A25G U34G — lower, 0.12
- G29C U32G — lower, 0.2
- C45G — higher, 0.39
- C15A G30A — lower, 0.06
- U38G A41G — lower, 0.14
- C8U A25C — lower, 0.21
- U9A C31A — lower, 0.07
- G1A G36C — lower, 0.11
- A39G U43C — lower, 0.04
- U28A C37A — lower, 0.04
- U32C A39C — lower, 0.08
- A6C U32A — lower, 0.03
- G7U C23A — lower, 0.06
- C15G G27C — lower, 0.05
- A26C C31U — lower, 0.17
- G7C G29A — lower, 0.13
- G27C C31U — lower, 0.07
- C10A A11U — lower, 0.03
- A12G G40C — lower, 0.1
- G5U A25C — lower, 0.05
- U20A A26G — higher, 0.91
- U20G G21C — higher, 0.46
- G5A U32A — lower, 0.06
- G5C C37A — lower, 0.05
- A12U A14G — lower, 0.18
- G5C C15U — lower, 0.08
- A6C G30U — higher, 0.9
- A24C U43C — lower, 0.1
- G5U A12C — lower, 0.04
- C8U G27C — lower, 0.11
- G1C A6G — lower, 0.02
- A4U G33U — lower, 0.12
- C10A C18A — lower, 0.07
- C18G G35U — lower, 0.08
- C18U G30A — higher, 1.78
- A4C A12G — lower, 0.06
- U34G A41U — lower, 0.17
- A16G A41U — lower, 0.16
- A4C G22C — lower, 0.08
- U20G A25C — lower, 0.19
- G1C U28G — lower, 0.07
- U9A C46A — lower, 0.17
- G36C C45G — lower, 0.04
- A4C C46A — lower, 0.14
- G33C C37U — lower, 0.05
- A4U U38C — lower, 0.17
- C13U C42A — lower, 0.09
- A6U A24C — higher, 1.21
- A4C C45A — lower, 0.12
- C23U G33C — lower, 0.05
- A14G A26U — higher, 0.59
- A26U G30U — higher, 1.25
- G2A A26C — higher, 0.9
- G5C U32A — lower, 0.06
- A11U U43C — lower, 0.04
- A26U G33A — lower, 0.09
- G7A G22A — lower, 0.14
- U43A G44A — lower, 0.1
- G2A C42U — higher, 0.44
- C37G U43G — lower, 0.05
- G5A A25C — lower, 0.07
- G1C C37G — lower, 0.02
- G7A A11U — lower, 0.03
- U32A G35C — lower, 0.08
- G21U A24G — higher, 1.37
- C10G G27C — lower, 0.09
- C15G G29A — lower, 0.09
- G33U U38C — lower, 0.08
- A11U C13G — lower, 0.03
- G21C G22C — higher, 0.57
- G35A A41C — lower, 0.04
- A12G G36C — lower, 0.04
- C8A C13A — higher, 0.67
- G17C G19C — higher, 1.39
- U20A G21U — higher, 0.69
- A25G G29C — higher, 0.65
- C8U G40A — higher, 0.41
- U9A C42G — lower, 0.13
- C15G C37G — lower, 0.02
- G19A A24C — higher, 0.61
- C10A G19U — lower, 0.06
- U20C G22A — higher, 0.77
- U9G G44C — lower, 0.03
- U20C G27A — higher, 0.78
- G2C G22U — lower, 0.23
- C3U A24C — higher, 0.37
- G2C A12C — lower, 0.02
- C31U U34C — lower, 0.12
- A25G U32C — lower, 0.06
- A14C C18A — lower, 0.05
- G2U U43G — lower, 0.02
- G2C G5A — lower, 0.05
- A4C G22A — lower, 0.09
- A4C A16C — lower, 0.04
- G27C U38C — lower, 0.29
- G7U G29C — lower, 0.03
- C37G G44C — lower, 0.03
- G7U A11G — lower, 0.03
- A16C C37U — lower, 0.1
- G19A G30C — higher, 1.5
- G5C U20G — lower, 0.06
- G21C U28G — higher, 0.45
- C3A C15A — lower, 0.24
- G5A U38C — lower, 0.09
- G29U G44A — higher, 0.41
- G1U G22A — lower, 0.25
- A41U C45U — higher, 0.55
- G29C A41U — higher, 0.32
- A12G C15U — lower, 0.03
- C15U G30C — lower, 0.09
- A11U C31G — lower, 0.03
- C13G G33U — lower, 0.03
- A4C C23U — lower, 0.16
- C10U G29A — lower, 0.18
- A6G A12G — lower, 0.03
- U20C A26C — higher, 0.36
- A11G G27C — lower, 0.03
- C23A U34C — higher, 0.78
- G29U A39U — higher, 0.7
- C10G U32C — lower, 0.03
- U28A U34A — higher, 0.44
- U9C C31U — lower, 0.03
- C13U C45A — lower, 0.05
- G19C A39G — lower, 0.02
- C15G G29U — lower, 0.06
- A11C C37U — lower, 0.02
- U28C C37U — lower, 0.06
- C8A G44U — higher, 0.43
- A6U C8U — lower, 0.29
- U20C G30U — higher, 0.41
- A4U A6G — lower, 0.16
- G5A C42U — higher, 1.53
- U20G C37G — lower, 0.07
- A12U G17C — lower, 0.25
- U34A A41C — lower, 0.03
- U28C G35C — lower, 0.13
- G33A G40A — lower, 0.07
- A24G U38G — lower, 0.03
- G22U C31U — higher, 0.4
- G19U A41U — higher, 0.41
